According to US20220227882A1 (TRUSTEES OF TUFTS COLLEGE, published 2022):

Tests used:
R431A = biological target: T1, R431A (Homo sapiens, UniProt P78325); experiment: high-throughput flow cytometry, HEK293 cells with mutant ADAM8, high stringency; range in parentheses; dotted box
T1 construct: expressed on HEK293 cells; also called human ADAM8 point mutant R431A
T1 sequence (ADAM8, looked up): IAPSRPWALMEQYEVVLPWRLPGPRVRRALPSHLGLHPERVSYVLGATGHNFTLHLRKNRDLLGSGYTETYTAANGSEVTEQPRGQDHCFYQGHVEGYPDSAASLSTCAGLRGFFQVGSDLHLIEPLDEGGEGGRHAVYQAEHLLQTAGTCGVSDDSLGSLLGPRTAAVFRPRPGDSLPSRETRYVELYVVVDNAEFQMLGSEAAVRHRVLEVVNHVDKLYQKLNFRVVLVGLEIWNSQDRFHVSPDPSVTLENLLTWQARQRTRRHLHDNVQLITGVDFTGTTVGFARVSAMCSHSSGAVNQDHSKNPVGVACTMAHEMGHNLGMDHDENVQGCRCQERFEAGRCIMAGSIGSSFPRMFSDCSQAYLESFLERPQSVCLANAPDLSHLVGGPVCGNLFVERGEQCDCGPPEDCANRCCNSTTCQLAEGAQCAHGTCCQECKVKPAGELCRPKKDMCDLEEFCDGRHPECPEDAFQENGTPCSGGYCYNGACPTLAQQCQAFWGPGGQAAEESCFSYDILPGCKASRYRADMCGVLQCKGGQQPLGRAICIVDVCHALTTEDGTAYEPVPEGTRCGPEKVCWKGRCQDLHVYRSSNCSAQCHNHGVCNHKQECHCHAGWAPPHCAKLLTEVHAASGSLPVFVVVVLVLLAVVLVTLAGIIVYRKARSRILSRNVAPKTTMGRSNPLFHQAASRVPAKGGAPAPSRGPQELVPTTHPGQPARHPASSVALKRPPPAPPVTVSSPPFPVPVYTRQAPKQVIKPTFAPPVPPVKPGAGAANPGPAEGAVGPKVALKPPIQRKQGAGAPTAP
Method: (§1) A variety of experimental parameters were optimized for high-throughput flow cytometry including blocking buffer, and primary and secondary antibody concentrations, to identify the optimal conditions for screening. Through these studies ADP2 and ADP13 were determined to be high affinity binding antibodies.
(§2) Thus, for these studies antigen-binding fragments (Fabs) of ADP2 and ADP13, which bind with lower affinity than the full antibody, were generated. In addition, higher binding stringency conditions were tested, such as increased pH, salinity, and temperature, and/or increased washing, to weaken binding sufficiently to allow identification of critical binding residues in flow cytometry. The final experimental flow cytometry conditions were: primary antibody incubation with ADP2 Fab (0.50 μg/ml), ADP13 Fab (5.00 μg/ml) and Control Ab (0.16 μg/ml) for 60 minutes in flow cytometry buffer containing 10% goat serum in PBS (Ca²⁺ and Mg²⁺ free). […] Samples were washed three times after primary antibody incubation and twice after secondary antibody incubation with PBS (Ca²⁺ and Mg′ free). Next, HEK293 cells expressing WT or mutated ADAM8 proteins or EV DNA were incubated with ADP2 or ADP13 Fabs or Control Ab at their optimal concentrations. Fab binding was detected using Alexa Fluor 488-conjugated secondary antibodies and mean cellular fluorescence determined using the Intellicyt iQue flow cytometry platform. […] This counter-screen strategy facilitates the exclusion of mutants that are locally misfolded or that have an expression defect. Binding of each test Fab to each mutant clone in the alanine scanning library was determined, in duplicate, by high-throughput flow cytometry.

K458A = biological target: T2, K458A (Homo sapiens, UniProt P78325); experiment: as above
T2 construct: expressed on HEK293 cells; also called human ADAM8 point mutant K458A
T2 sequence (ADAM8, looked up): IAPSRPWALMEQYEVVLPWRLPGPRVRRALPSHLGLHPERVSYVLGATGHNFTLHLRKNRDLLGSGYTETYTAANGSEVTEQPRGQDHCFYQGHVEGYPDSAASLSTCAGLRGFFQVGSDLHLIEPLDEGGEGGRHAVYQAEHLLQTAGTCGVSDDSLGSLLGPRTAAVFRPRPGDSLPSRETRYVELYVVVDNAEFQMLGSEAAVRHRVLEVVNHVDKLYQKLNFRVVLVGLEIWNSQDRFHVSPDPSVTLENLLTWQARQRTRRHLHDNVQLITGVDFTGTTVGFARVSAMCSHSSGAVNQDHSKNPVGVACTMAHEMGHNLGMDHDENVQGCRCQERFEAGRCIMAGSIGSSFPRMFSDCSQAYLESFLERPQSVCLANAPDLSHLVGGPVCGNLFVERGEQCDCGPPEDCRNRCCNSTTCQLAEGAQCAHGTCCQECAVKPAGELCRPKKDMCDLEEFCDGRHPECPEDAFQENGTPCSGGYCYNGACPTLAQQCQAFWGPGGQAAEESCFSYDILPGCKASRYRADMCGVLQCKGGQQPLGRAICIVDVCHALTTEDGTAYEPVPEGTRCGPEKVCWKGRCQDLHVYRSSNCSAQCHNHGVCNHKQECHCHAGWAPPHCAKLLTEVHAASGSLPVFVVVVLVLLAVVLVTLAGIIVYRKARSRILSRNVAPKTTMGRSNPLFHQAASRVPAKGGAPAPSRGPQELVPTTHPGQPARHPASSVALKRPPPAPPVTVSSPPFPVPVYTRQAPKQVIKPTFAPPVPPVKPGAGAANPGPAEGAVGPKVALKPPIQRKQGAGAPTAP
Method: as §1, §2

B1: ADP2 Fab (Fab, V domains shown)
VH: EVKLVESGGGLVQPGGSLSLSCAASGFSFPDYYMSWVRQPPGKALEWLGFIRDSANGYTTEYIASVKGRFTFSRDNSQSILYLQMNALRAEDSATYYCARYSRYYGMDYWGQGTSVTVSS
VL: SIVMTQTPKILLVSAGDRVTITCKASQTVNYDVAWYQQKPGQSPKPVIYFASNRYTGVPDRFTGSGFGTDFTFTISTVQAEDLAVYFCQQDYSAPWTFGGGTKLEIK
Binding Reactivity (% WT) (R431A): 26.2 % WT | Binding Reactivity (% WT) (K458A): 28 % WT
